Assay results from patent US20150017171A1 (CHINA SYNTHETIC RUBBER, published 2015).

Key:
[1] = target: T1, recombinant human PLVAP51-442 protein (extracellular domain, His tag removed by thrombin) (human, UniProt Q9BX97 51-442); assay: ANTQ300 quartz crystal microbalance
T1 construct: also called recombinant PLVAP protein; recombinant PLVAP
T1 sequence: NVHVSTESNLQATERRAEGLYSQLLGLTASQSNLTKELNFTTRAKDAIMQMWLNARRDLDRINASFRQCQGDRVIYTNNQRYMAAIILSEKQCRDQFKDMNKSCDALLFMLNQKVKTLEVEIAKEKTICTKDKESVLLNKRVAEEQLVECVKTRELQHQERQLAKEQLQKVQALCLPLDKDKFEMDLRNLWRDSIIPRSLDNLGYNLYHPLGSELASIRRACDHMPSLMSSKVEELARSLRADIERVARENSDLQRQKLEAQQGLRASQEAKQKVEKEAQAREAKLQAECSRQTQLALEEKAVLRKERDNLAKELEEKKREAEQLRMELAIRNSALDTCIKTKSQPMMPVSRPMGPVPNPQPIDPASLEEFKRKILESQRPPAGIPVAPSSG

[2] = target: T1, recombinant human PLVAP51-442 protein …; assay: Biacore T-100
[3] = target: T2, His-tagged human PLVAP51-292 (human, UniProt Q9BX97 51-292); assay: immunoblot of total protein extract of E. coli expressing the His-tagged protein
T2 construct: also called N-terminal portion of the extracellular domain; not shown: His tag and vector residues of pET-15b
T2 sequence: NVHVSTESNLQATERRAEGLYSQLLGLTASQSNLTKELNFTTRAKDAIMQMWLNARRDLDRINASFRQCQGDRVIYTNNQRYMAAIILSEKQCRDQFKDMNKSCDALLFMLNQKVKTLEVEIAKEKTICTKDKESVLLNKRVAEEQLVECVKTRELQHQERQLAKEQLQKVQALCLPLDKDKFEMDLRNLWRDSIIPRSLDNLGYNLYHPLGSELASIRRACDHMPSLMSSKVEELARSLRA
From the text: (§1) Molecular weight protein standards are resolved in Lane M.

[4] = target: T3, His-tagged human CEACAM6 (human, UniProt P40199 35-320, limits assumed); assay: as above
T3 construct: also called human CEACAM6 protein unrelated to PLVAP (lane 4); not shown: His tag
T3 sequence (looked up): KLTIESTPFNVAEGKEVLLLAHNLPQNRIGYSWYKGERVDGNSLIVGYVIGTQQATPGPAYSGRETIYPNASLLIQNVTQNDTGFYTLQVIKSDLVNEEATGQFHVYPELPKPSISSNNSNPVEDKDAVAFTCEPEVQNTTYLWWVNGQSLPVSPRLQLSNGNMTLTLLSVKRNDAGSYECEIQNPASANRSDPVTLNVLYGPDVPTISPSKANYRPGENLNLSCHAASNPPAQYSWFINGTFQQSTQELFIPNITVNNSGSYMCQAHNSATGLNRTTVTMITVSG
From the text: as §1

[5] = target: T1, recombinant human PLVAP51-442 protein …; assay: competition ELISA on coated recombinant PLVAP; competitor biotinylated murine KFCC-GY5
Procedure: The binding of KFCC-GY4 and KFCC-GY5 human antibody variants to recombinant PLVAP was assessed in a competition ELISA. Either a dilution series of variant or control antibody from 30 μg/m to 0.014 μg/m (final concentration) was premixed with a constant concentration of biotinylated murine KFCC-GY4 (0.3 μg/ml, final concentration) or a dilution series of variant or control antibody from 10 μg/m to 0.004 μg/ml (final concentration) was premixed with a constant concentration of biotinylated murine KFCC-GY5 (0.1 μg/ml, final concentration) before incubating for 1 hour at room temperature on a Nunc Immuno MaxiSorp 96 well flat bottom microtitre plate (Fisher Catalogue No. DIS-971-030J) precoated with 1 μg/m recombinant “protein P” diluted in PBS. The binding of the biotinylated mAb was determined by detection with streptavidin-HRP and TMB substrate. After stopping the reaction with 3M HCl, absorbance was measured at 450 nm on a Dynex Technologies MRX TC II plate reader and the binding curves of the test antibodies compared against the mouse reference standard.
Similarly, the four lead variants of IgG4-GY5 and murine KFCC-GY5 antibodies have very similar binding profiles (FIG. 49). All of the lead variants shown are within two-fold of the original murine monoclonal antibody.

[6] = target: T4, peptide encompassing amino acids 378 to 404 of human PLVAP, expressed by an E. coli clone of the Novatope … (human); assay: colony blot of Novatope fragment library
T4 peptide: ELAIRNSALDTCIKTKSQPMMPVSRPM
Procedure: PCR was performed using the following thermal cycle: 94° C. for 5 min, followed by 35 cycles of 94° C. for 30 s, 56° C. for 30 s and 72° C. for 60 s. DNA was purified with the Qiaquick PCR purification kit (Qiagen, Surrey, UK) and then used in the construction of a PLVAP Novatope library according to the manufacturer's instructions (Novagen, Merck Biosciences Ltd., Beeston, UK). Briefly, purified PCR product was digested with DNAse I in the presence of Mn²⁺ and fragments between 50-150 base pairs (bp) were gel purified using a gel extraction kit (Qiagen). The DNA fragments were end-filled using T4 DNA polymerase and Tth polymerase to add a single dA residue to each 3′ end and then ligated into the pScreen 1b(+)T-vector (Novagen), which is designed to express small inserts as a carboxy-terminal fusion to the T7 bacterial phage gene 10 capsid protein. The library was transformed into NovaBlue (DE3) cells and plated onto Luria-Bertani (LB) media plates containing carbenicillin (50 μg/ml) and tetracycline (12.5 μg/m). The resulting human PLVAP cDNA library was screened (approximately 10⁴ colonies for each antibody) using the method described in the Novatope manual: Colonies expressing PLVAP fragments were transferred to nitrocellulose filters by contact with the colony for 1 min. Bacterial colonies on the filters were lysed by incubating in a sealed chloroform vapor chamber for 15 min. […]

[7] = target: T1, recombinant human PLVAP51-442 protein …; assay: competition ELISA on coated recombinant PLVAP; competitor biotinylated murine KFCC-GY5 at 0.1 µg/ml
Procedure: The binding of chimeric KFCC-GY4 and KFCC-GY5 antibodies to recombinant PLVAP protein was assessed in a competition ELISA. Either a dilution series of chimeric or control antibody from 30 μg/ml to 0.014 μg/m (final concentration) was premixed with a constant concentration of biotinylated murine KFCC-GY4 (0.3 μg/ml, final concentration) or a dilution series of chimeric or control antibody from 10 μg/ml to 0.004 μg/m (final concentration) was premixed with a constant concentration of biotinylated murine KFCC-GY5 (0.1 μg/ml, final concentration) before incubating for 1 hour at room temperature on a Nunc Immuno MaxiSorp 96 well flat bottom microtitre plate (Fisher Catalogue No. DIS-971-030J) precoated with 1 μg/ml recombinant PLVAP protein diluted in PBS. The binding of the biotinylated mAb was determined by detection with streptavidin-HRP and TMB substrate.
Therefore, the correct variable region sequences for the parent murine monoclonal antibodies were identified and cloned.

B1: KFCC-GY5 monoclonal antibody (murine, hybridoma ATCC PTA-9964) (antibody, mouse IgG1, V domains shown)
VH: QVQLQQPGAELVRPGASVKLSCKASGYTFTSNYINWVKQRPGQGLEWIGNIYPSDGFTNYNQKFKDRATLTVDKSSSTAYMQLSSPTSEDSAVYYCTRNFDVWGAGTTVTVSS
VL: DVVMTQTPLSLPVSLGDQASISCRSSQSLVHSNGNTYLQWYLQKPGQSPKLLIYTVSNRFSGVPDRFSGSGSGPDFTLKISRVEAEDLGVYFCSQSTHVPFTFGSGTKLEIK
notes: also called GY5 mAB; KFCC-GY5 mAb
Kd [1]: 41 nM
Kd [2]: 59.8 nM
koff [2]: 0.000414 s⁻¹
kon [2]: 6930 M⁻¹ s⁻¹
binding result [3]: no binding
binding result [4]: no binding
IC50 [5]: 0.38 µg/mL
IC50 (ratio compared to GY5 mAb) [5]: 1
binding result [6]: binds
IC50 [7]: 0.49 µg/mL
